Our source for the Kd and binding signal (fold higher affinity than ligand B) values is US5817785.

Data set [1] addresses T1, HIV-1 Rev protein (HIV-1) (UniProt P04618).
T1 sequence: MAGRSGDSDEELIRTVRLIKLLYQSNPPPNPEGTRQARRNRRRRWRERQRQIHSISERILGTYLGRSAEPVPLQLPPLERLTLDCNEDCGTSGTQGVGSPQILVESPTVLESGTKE
The data set is described as follows: filter. The following applies: background affinity of starting pool.

Data set [2] has as its target HIV-1 reverse transcriptase (HIV-RT) (HIV-1) (UniProt P04585+P04585). The data set is described as follows: filter.

In data set [1], “CCCGGAUCCUCUUUACCUCUGUGUGAGAUACAGAGUCCACAAACGUGUUCUCAAUGCACCCGGUCGGAAGGCCAUCAAUAGUCCC” came in with a Kd of 100 nM.
The sequence “GGUCCGAAGUGCAACGGGAAAAUGCACUNNNNGUGARNNNNUGNUCCNNNN [extended HIV-RT ligands, Extension Motif I consensus]” showed a binding signal (fold higher affinity than ligand B) in data set [2] of more than 10.
Take “GGUCCGAAGUGCAACGGGAAAAUGCACUNNNNNNAGNNNNNNUGNUGNNNNNNN [extended HIV-RT ligands, Extension Motif II consensus]”: the binding signal (fold higher affinity than ligand B) in data set [2] is more than 10.
